In publication PMC4624681 (2015) one finds Kd data, which are given here for four molecules.

T1: Zaire GP (1–320) with a His tag (Ebolavirus, Zaire strain, UniProt Q05320 33-320)
T1 chain: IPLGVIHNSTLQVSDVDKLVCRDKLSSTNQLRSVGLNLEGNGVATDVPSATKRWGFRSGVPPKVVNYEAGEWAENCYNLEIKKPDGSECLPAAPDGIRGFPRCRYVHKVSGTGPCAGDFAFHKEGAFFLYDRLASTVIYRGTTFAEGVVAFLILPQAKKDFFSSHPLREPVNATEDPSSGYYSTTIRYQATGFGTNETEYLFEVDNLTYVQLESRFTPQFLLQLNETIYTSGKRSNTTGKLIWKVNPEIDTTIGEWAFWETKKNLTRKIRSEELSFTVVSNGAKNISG

B1: T41 (CC’-FG) chimera: hTIM-4 Ig V with the CC’ and FG loops of hTIM-1 (domain or fragment)
chain: VTSETVVTEVLGHRVTLPCLYSSWSHNSNSMCWNRGSCSLFTCKEALIRTDGMRVTSRKSAKYRLQGTIPRGDVSLTILNPSESDSGVYCCRIEHRGWFNDVKINVRLNLQRASTT
B2: T14 (FG) chimera: hTIM-1 Ig V with the FG loop of hTIM-4 (domain or fragment)
chain: VKVGGEAGPSVTLPCHYSGAVTSMCWNRGSCSLFTCQNGIVWTNGTHVTYRKDTRYKLLGDLSRRDVSLTIENTAVSDSGVYCCRVEVPGWFNDMKITVSLEIVPPKV
B3: T41 (BC-CC’-FG) chimera: hTIM-4 Ig V with the BC, CC’ and FG loops of hTIM-1 (domain or fragment)
chain: VTSETVVTEVLGHRVTLPCLYSGAVTSMCWNRGSCSLFTCKEALIRTDGMRVTSRKSAKYRLQGTIPRGDVSLTILNPSESDSGVYCCRIEHRGWFNDVKINVRLNLQRASTT
B4: T41 (BC-CC’) chimera: hTIM-4 Ig V with the BC and CC’ loops of hTIM-1 (domain or fragment)
chain: B3 chain with H92V, R93P

By Kd is commonly meant a measure of binding affinity in units of concentration. High values mean weaker binding, low ones tighter binding.

Numbering of substitutions follows the chain as printed.

For this assay, the target named is T1, Zaire GP (1–320) with a His tag. The assay is described as follows: SPR.
Molecule B1 registered a Kd of 208 µM.
Regarding B2, the Kd is 57.9 µM.
B3 displayed a dissociation constant (Kd) of 72.4 µM.
With B4, the Kd was determined as 73.2 µM.
